{"source": "the Human Domainome abundance scans (Beltran et al. 2025)", "parents": {"B1": {"name": "Death-inducer obliterator 1, residues 263 to 321; numbered along this chain, Q9BTC0 (parent)", "chain": "GYDPNALYCICRQPHNNRFMICCDRCEEWFHGDCVGISEARGRLLERNGEDYICPNCTI"}}, "note": "± gives the uncertainty stated by the source.", "data": [{"variants_of": "B1", "test": "abundance fitness (aPCA) (normalised: wild type 0, dead -1); higher = more abundant; growth selection in yeast, the domain comes from the species named", "conditions": "Homo sapiens", "values": [{"variant": "GYDPNALYCICRQPHNNRFMICCDRCEEIFHGDCVGISEARGRLLERNGEDYICPNCTI", "note": "[W29I]", "abundance fitness": "0.225 ± 0.064"}, {"variant": "GYDPNALYCICRQPHNNRFMICCDRCEEKFHGDCVGISEARGRLLERNGEDYICPNCTI", "note": "[W29K]", "abundance fitness": "0.2 ± 0.12"}, {"variant": "GYDPNALYCICRQPHNNRFMICCDRCEELFHGDCVGISEARGRLLERNGEDYICPNCTI", "note": "[W29L]", "abundance fitness": "0.215 ± 0.049"}, {"variant": "GYDPNALYCICRQPHNNRFMICCDRCEEMFHGDCVGISEARGRLLERNGEDYICPNCTI", "note": "[W29M]", "abundance fitness": "0.176 ± 0.083"}, {"variant": "GYDPNALYCICRQPHNNRFMICCDRCEENFHGDCVGISEARGRLLERNGEDYICPNCTI", "note": "[W29N]", "abundance fitness": "0.224 ± 0.14"}, {"variant": "GYDPNALYCICRQPHNNRFMICCDRCEEPFHGDCVGISEARGRLLERNGEDYICPNCTI", "note": "[W29P]", "abundance fitness": "0.05 ± 0.071"}, {"variant": "GYDPNALYCICRQPHNNRFMICCDRCEERFHGDCVGISEARGRLLERNGEDYICPNCTI", "note": "[W29R]", "abundance fitness": "0.173 ± 0.056"}, {"variant": "GYDPNALYCICRQPHNNRFMICCDRCEESFHGDCVGISEARGRLLERNGEDYICPNCTI", "note": "[W29S]", "abundance fitness": "0.17 ± 0.042"}, {"variant": "GYDPNALYCICRQPHNNRFMICCDRCEETFHGDCVGISEARGRLLERNGEDYICPNCTI", "note": "[W29T]", "abundance fitness": "0.242 ± 0.058"}, {"variant": "GYDPNALYCICRQPHNNRFMICCDRCEEVFHGDCVGISEARGRLLERNGEDYICPNCTI", "note": "[W29V]", "abundance fitness": "0.252 ± 0.056"}, {"variant": "GYDPNALYCICRQPHNNRFMICCDRCEEYFHGDCVGISEARGRLLERNGEDYICPNCTI", "note": "[W29Y]", "abundance fitness": "0.064 ± 0.12"}, {"variant": "GYDPNALYCICRQPHNNRFMICCDRCEEWAHGDCVGISEARGRLLERNGEDYICPNCTI", "note": "[F30A]", "abundance fitness": "-0.283 ± 0.086"}, {"variant": "GYDPNALYCICRQPHNNRFMICCDRCEEWCHGDCVGISEARGRLLERNGEDYICPNCTI", "note": "[F30C]", "abundance fitness": "-0.08 ± 0.081"}, {"variant": "GYDPNALYCICRQPHNNRFMICCDRCEEWDHGDCVGISEARGRLLERNGEDYICPNCTI", "note": "[F30D]", "abundance fitness": "-0.749 ± 0.13"}, {"variant": "GYDPNALYCICRQPHNNRFMICCDRCEEWEHGDCVGISEARGRLLERNGEDYICPNCTI", "note": "[F30E]", "abundance fitness": "-0.954 ± 0.34"}, {"variant": "GYDPNALYCICRQPHNNRFMICCDRCEEWGHGDCVGISEARGRLLERNGEDYICPNCTI", "note": "[F30G]", "abundance fitness": "-0.269 ± 0.14"}, {"variant": "GYDPNALYCICRQPHNNRFMICCDRCEEWHHGDCVGISEARGRLLERNGEDYICPNCTI", "note": "[F30H]", "abundance fitness": "0.004 ± 0.15"}, {"variant": "GYDPNALYCICRQPHNNRFMICCDRCEEWIHGDCVGISEARGRLLERNGEDYICPNCTI", "note": "[F30I]", "abundance fitness": "-0.289 ± 0.1"}, {"variant": "GYDPNALYCICRQPHNNRFMICCDRCEEWKHGDCVGISEARGRLLERNGEDYICPNCTI", "note": "[F30K]", "abundance fitness": "-0.349 ± 0.065"}, {"variant": "GYDPNALYCICRQPHNNRFMICCDRCEEWLHGDCVGISEARGRLLERNGEDYICPNCTI", "note": "[F30L]", "abundance fitness": "-0.006 ± 0.051"}, {"variant": "GYDPNALYCICRQPHNNRFMICCDRCEEWMHGDCVGISEARGRLLERNGEDYICPNCTI", "note": "[F30M]", "abundance fitness": "0.013 ± 0.048"}, {"variant": "GYDPNALYCICRQPHNNRFMICCDRCEEWNHGDCVGISEARGRLLERNGEDYICPNCTI", "note": "[F30N]", "abundance fitness": "-0.013 ± 0.087"}, {"variant": "GYDPNALYCICRQPHNNRFMICCDRCEEWPHGDCVGISEARGRLLERNGEDYICPNCTI", "note": "[F30P]", "abundance fitness": "-0.711 ± 0.17"}, {"variant": "GYDPNALYCICRQPHNNRFMICCDRCEEWQHGDCVGISEARGRLLERNGEDYICPNCTI", "note": "[F30Q]", "abundance fitness": "-0.471 ± 0.15"}, {"variant": "GYDPNALYCICRQPHNNRFMICCDRCEEWRHGDCVGISEARGRLLERNGEDYICPNCTI", "note": "[F30R]", "abundance fitness": "-0.306 ± 0.086"}, {"variant": "GYDPNALYCICRQPHNNRFMICCDRCEEWSHGDCVGISEARGRLLERNGEDYICPNCTI", "note": "[F30S]", "abundance fitness": "-0.266 ± 0.054"}, {"variant": "GYDPNALYCICRQPHNNRFMICCDRCEEWTHGDCVGISEARGRLLERNGEDYICPNCTI", "note": "[F30T]", "abundance fitness": "-0.38 ± 0.092"}, {"variant": "GYDPNALYCICRQPHNNRFMICCDRCEEWVHGDCVGISEARGRLLERNGEDYICPNCTI", "note": "[F30V]", "abundance fitness": "-0.327 ± 0.12"}, {"variant": "GYDPNALYCICRQPHNNRFMICCDRCEEWWHGDCVGISEARGRLLERNGEDYICPNCTI", "note": "[F30W]", "abundance fitness": "-0.325 ± 0.12"}, {"variant": "GYDPNALYCICRQPHNNRFMICCDRCEEWYHGDCVGISEARGRLLERNGEDYICPNCTI", "note": "[F30Y]", "abundance fitness": "-0.041 ± 0.093"}, {"variant": "GYDPNALYCICRQPHNNRFMICCDRCEEWFAGDCVGISEARGRLLERNGEDYICPNCTI", "note": "[H31A]", "abundance fitness": "-0.636 ± 0.1"}, {"variant": "GYDPNALYCICRQPHNNRFMICCDRCEEWFCGDCVGISEARGRLLERNGEDYICPNCTI", "note": "[H31C]", "abundance fitness": "-0.282 ± 0.075"}, {"variant": "GYDPNALYCICRQPHNNRFMICCDRCEEWFDGDCVGISEARGRLLERNGEDYICPNCTI", "note": "[H31D]", "abundance fitness": "-0.422 ± 0.12"}, {"variant": "GYDPNALYCICRQPHNNRFMICCDRCEEWFEGDCVGISEARGRLLERNGEDYICPNCTI", "note": "[H31E]", "abundance fitness": "-0.923 ± 0.22"}, {"variant": "GYDPNALYCICRQPHNNRFMICCDRCEEWFFGDCVGISEARGRLLERNGEDYICPNCTI", "note": "[H31F]", "abundance fitness": "-0.559 ± 0.12"}, {"variant": "GYDPNALYCICRQPHNNRFMICCDRCEEWFIGDCVGISEARGRLLERNGEDYICPNCTI", "note": "[H31I]", "abundance fitness": "-0.67 ± 0.096"}, {"variant": "GYDPNALYCICRQPHNNRFMICCDRCEEWFKGDCVGISEARGRLLERNGEDYICPNCTI", "note": "[H31K]", "abundance fitness": "-0.967 ± 0.26"}, {"variant": "GYDPNALYCICRQPHNNRFMICCDRCEEWFLGDCVGISEARGRLLERNGEDYICPNCTI", "note": "[H31L]", "abundance fitness": "-0.628 ± 0.088"}, {"variant": "GYDPNALYCICRQPHNNRFMICCDRCEEWFMGDCVGISEARGRLLERNGEDYICPNCTI", "note": "[H31M]", "abundance fitness": "-0.667 ± 0.11"}, {"variant": "GYDPNALYCICRQPHNNRFMICCDRCEEWFNGDCVGISEARGRLLERNGEDYICPNCTI", "note": "[H31N]", "abundance fitness": "-0.765 ± 0.14"}, {"variant": "GYDPNALYCICRQPHNNRFMICCDRCEEWFPGDCVGISEARGRLLERNGEDYICPNCTI", "note": "[H31P]", "abundance fitness": "-1.05 ± 0.22"}, {"variant": "GYDPNALYCICRQPHNNRFMICCDRCEEWFQGDCVGISEARGRLLERNGEDYICPNCTI", "note": "[H31Q]", "abundance fitness": "-0.782 ± 0.29"}, {"variant": "GYDPNALYCICRQPHNNRFMICCDRCEEWFRGDCVGISEARGRLLERNGEDYICPNCTI", "note": "[H31R]", "abundance fitness": "-0.584 ± 0.1"}, {"variant": "GYDPNALYCICRQPHNNRFMICCDRCEEWFSGDCVGISEARGRLLERNGEDYICPNCTI", "note": "[H31S]", "abundance fitness": "-0.776 ± 0.09"}, {"variant": "GYDPNALYCICRQPHNNRFMICCDRCEEWFTGDCVGISEARGRLLERNGEDYICPNCTI", "note": "[H31T]", "abundance fitness": "-0.956 ± 0.14"}]}]}
